What was measured:
[1] = biological target: T1, Ad5FDgT fiber (Human Adenovirus 5 fiber with DogTag inserted at the HI loop domain of the fiber knob) (Human Adenovirus 5); test: covalent DogCatcher/DogTag conjugation to the virus capsid
T1 chain: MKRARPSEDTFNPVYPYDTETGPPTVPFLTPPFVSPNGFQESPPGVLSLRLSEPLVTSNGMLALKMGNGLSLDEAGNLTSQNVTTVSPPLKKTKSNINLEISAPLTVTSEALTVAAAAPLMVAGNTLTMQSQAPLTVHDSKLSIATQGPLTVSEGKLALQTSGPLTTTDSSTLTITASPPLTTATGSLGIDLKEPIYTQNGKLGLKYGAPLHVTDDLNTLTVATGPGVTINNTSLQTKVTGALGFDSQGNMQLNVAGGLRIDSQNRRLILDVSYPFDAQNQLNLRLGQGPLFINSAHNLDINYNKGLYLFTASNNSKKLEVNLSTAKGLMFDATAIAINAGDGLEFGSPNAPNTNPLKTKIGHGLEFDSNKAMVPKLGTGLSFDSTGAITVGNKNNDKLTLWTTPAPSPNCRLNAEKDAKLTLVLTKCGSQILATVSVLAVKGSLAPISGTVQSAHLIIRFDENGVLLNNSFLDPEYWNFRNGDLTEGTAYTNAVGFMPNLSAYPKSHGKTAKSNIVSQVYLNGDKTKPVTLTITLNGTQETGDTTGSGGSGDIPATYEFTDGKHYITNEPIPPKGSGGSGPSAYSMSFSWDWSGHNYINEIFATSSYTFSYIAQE

murine CD19 = biological target: T2, murine CD19 (mouse, UniProt P25918 19-547); test: cell-based or functional assay
T2 sequence: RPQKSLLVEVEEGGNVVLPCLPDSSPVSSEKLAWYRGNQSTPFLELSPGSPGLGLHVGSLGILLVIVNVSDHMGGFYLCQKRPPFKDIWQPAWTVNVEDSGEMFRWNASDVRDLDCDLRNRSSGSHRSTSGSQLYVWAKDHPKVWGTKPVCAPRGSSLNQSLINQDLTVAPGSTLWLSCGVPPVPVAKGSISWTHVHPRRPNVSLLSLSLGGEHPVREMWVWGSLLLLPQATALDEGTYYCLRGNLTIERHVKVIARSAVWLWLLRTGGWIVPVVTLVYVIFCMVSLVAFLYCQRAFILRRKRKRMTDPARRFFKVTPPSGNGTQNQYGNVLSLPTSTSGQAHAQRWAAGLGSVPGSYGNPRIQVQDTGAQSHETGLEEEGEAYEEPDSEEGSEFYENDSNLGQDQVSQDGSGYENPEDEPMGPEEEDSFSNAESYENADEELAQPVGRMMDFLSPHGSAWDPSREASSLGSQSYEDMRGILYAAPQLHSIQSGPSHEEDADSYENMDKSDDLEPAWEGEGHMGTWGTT

[2] = biological target: T1, Ad5FDgT fiber (Human Adenovirus 5 fiber …); test: SDS-PAGE gel shift of the fiber band after co-incubation at room temperature
[3] = biological target: T1, Ad5FDgT fiber (Human Adenovirus 5 fiber …); test: SDS-PAGE (complete shift of the fiber-DogTag band) and western blot against the fiber tail, purified Ad-Ab complexes
murine CD8a [4] = biological target: T3, murine CD8a (mouse, UniProt P01731 28-247); test: cell-based or functional assay
murine CD8a [5] = biological target: T3, murine CD8a; test: flow cytometry on murine splenocytes, gated on CD8+, detected with anti-His Tag antibody

T3 sequence (P01731 28-247): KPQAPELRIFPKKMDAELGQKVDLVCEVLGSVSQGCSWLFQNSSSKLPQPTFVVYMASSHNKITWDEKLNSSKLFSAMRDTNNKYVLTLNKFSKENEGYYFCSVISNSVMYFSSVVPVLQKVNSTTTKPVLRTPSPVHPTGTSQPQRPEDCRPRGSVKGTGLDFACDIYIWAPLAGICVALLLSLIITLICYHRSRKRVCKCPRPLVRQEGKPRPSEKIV

B1: 1D3DgC (1D3 anti-murine CD19 scFv fused to DogCatcher; IL-2 signal sequence-1D3 scFv-(G4S)3-DgC-6xHis) (scFv)
scFv: DIQMTQSPASLSTSLGETVTIQCQASEDIYSGLAWYQQKPGKSPQLLIYGASDLQDGVPSRFSGSGSGTQYSLKITSMQTEDEGVYFCQQGLTYPRTFGGGTKLELKGGGGSGGGGSGGGGSEVQLQQSGAELVRPGTSVKLSCKVSGDTITFYYMHFVKQRPGQGLEWIGRIDPEDESTKYSEKFKNKATLTADTSSNTAYLKLSSLTSEDTATYFCIYGGYYFDYWGQGVMVTVSSGGGGSGGGGSGGGGSAMKLGEIEFIKVDKTDKKPLRGAVFSLQKQHPDYPDIYGAIDQNGTYQDVRTGEDGKLTFTNLSDGKYRLIENSEPPGYKPVQNKPIVSFRIVDGEVRDVTSIVPQGSSGSHHHHHH
notes: also called lD3DgC; 1D3 scFv-DogCatcher
binding result [1]: binds | gene expression in B cells in vivo, against the parent vector (murine CD19): ~2 fold

B2: 18B12DgC (18B12 anti-murine CD20 scFv fused to DogCatcher; IL-2 signal sequence-18B12 scFV-(G4S)3-DgC-6xHis) (scFv)
scFv: QVQLQQPGAELVRPGTSVKLSCKASGYTFTSYWMHWIKQRPGQGLEWIGVIDPSDNYTKYNQKFKGKATLTVDTSSSTAYMQLSSLTSEDSAVYFCAREGYYGSSPWFAYWGQGTLVTVSSGGGGSGGGGSGGGGSQIVMSQSPAILSASPGEKVTMTCRARSSVSYIHWYQQKPGSSPKPWIYATSNLASGVPGRFSGSGSGTSYSLTITRVEAEDAATYYCQQWSSKPPTFGGGTKLEIKGGGGSGGGGSGGGGSAMKLGEIEFIKVDKTDKKPLRGAVFSLQKQHPDYPDIYGAIDQNGTYQDVRTGEDGKLTFTNLSDGKYRLIENSEPPGYKPVQNKPIVSFRIVDGEVRDVTSIVPQGSSGSHHHHHH
notes: also called 18B12 scFv-DogCatcher
binding result [1]: binds

B3: DogCatcher (bacterially produced, 6xHis-TEV-DogCatcher) (other)
chain: MSYYHHHHHHDYDIPTTENLYFQGAMKLGEIEFIKVDKTDKKPLRGAVFSLQKQHPDYPDIYGAIDQNGTYQDVRTGEDGKLTFTNLSDGKYRLIENSEPPGYKPVQNKPIVSFRIVDGEVRDVTSIVPQ
notes: also called DgC; pDEST14-DogCatcher product
binding result [2]: binds

B4: YTS169DgC (YTS169 anti-murine CD8a scFv fused to DogCatcher; IGHV1-46 signal sequence-YTS169 scFv-(G4S)3-DgC-6xHis) (scFv)
scFv: EVKLQESGGGLVQPGRSLKLSCAASGFNFNDYWMGWVRQAPGKGLEWIGEINKDSSTINYTPSLKDKFTISRDNAQNTLYLQMSKLGSEDTAIYYCARARGMMVLIIPHYFDYWGQGVMVTVSSGGGGSGGGGSGGGGSDIVLTQSPAMAMSPGERITISCRASESVSTRMHWYQQKPGQQPKLLIYGASNLESGVPARFSGSGSGTDFTLTIDPVEANDTATYFCQQSWYDPWTFGGGTKLELKGGGGSGGGGSGGGGSAMKLGEIEFIKVDKTDKKPLRGAVFSLQKQHPDYPDIYGAIDQNGTYQDVRTGEDGKLTFTNLSDGKYRLIENSEPPGYKPVQNKPIVSFRIVDGEVRDVTSIVPQGSSGSHHHHHH
notes: also called YTS169 scFv-DogCatcher; anti-mCD8 YTS169
binding result [3]: binds | gene expression in CD8a+ T cells in vivo (murine CD8a [4]): ~2 fold

B5: FMC63 scFv-DogCatcher fusion (anti-human CD19; IL-2 signal sequence-FMC63 scFv-(G4S)3-DgC-6xHis) (scFv)
scFv: DIQMTQTTSSLSASLGDRVTISCRASQDISKYLNWYQQKPDGTVKLLIYHTSRLHSGVPSRFSGSGSGTDYSLTISNLEQEDIATYFCQQGNTLPYTFGGGTKLEITGGGGSGGGGSGGGGSEVKLQESGPGLVAPSQSLSVTCTVSGVSLPDYGVSWIRQPPRKGLEWLGVIWGSETTYYNSALKSRLTIIKDNSKSQVFLKMNSLQTDDTAIYYCAKHYYYGGSYAMDYWGQGTSVTVSSGGGGSGGGGSGGGGSAMKLGEIEFIKVDKTDKKPLRGAVFSLQKQHPDYPDIYGAIDQNGTYQDVRTGEDGKLTFTNLSDGKYRLIENSEPPGYKPVQNKPIVSFRIVDGEVRDVTSIVPQGSSGSHHHHHH
notes: also called FMC163DgC (plasmid name as printed)
binding result [1]: binds

B6: 2.43DgC (2.43 scFv fused to DogCatcher; IGHV1-46 signal sequence-2.43 scFv-(G4S)3-DgC-6xHis) (scFv)
scFv: EVQLVESGGGLVQPGRSLKLSCAASGFTFSNYYMAWVRQAPTKGLEWVAYINTGGGTTYYRDSVKGRFTISRDDAKSTLYLQMDSLRSEDTATYYCTTAIGYYFDYWGQGVMVTVSSGGGGSGGGGSGGGGSDIQLTQSPASLSASLGETVSIECLASEDIYSYLAWYQQKPGKSPQVLIYAANRLQDGVPSRFSGSGSGTQYSLKISGMQPEDEGDYFCLQGSKFPYTFGAGTKLELKGGGGSGGGGSGGGGSAMKLGEIEFIKVDKTDKKPLRGAVFSLQKQHPDYPDIYGAIDQNGTYQDVRTGEDGKLTFTNLSDGKYRLIENSEPPGYKPVQNKPIVSFRIVDGEVRDVTSIVPQGSSGSHHHHHH
notes: also called 2.43 scFv-DogCatcher
binding result (murine CD8a [5]): binds
